Data published in IntAct's records for PubMed 15205937.

B1: Cysteine and glycine-rich protein 3 (Homo sapiens), P50461 (parent)
chain: MPNWGGGAKCGACEKTVYHAEEIQCNGRSFHKTCFHCMACRKALDSTTVAAHESEIYCKVCYGRRYGPKGIGYGQGAGCLSTDTGEHLGLQFQQSPKPARSVTTSNPSKFTAKFGESEKCPRCGKSVYAAEKVMGGGKPWHKTCFRCAICGKSLESTNVTDKDGELYCKVCYAKNFGPTGIGFGGLTQQVEKKE

Variants of: B1
Conditions: with nrap_human NRAP

effect of a mutation on the interaction	Variant
disrupting interaction	C58G

Variants of: B1
Conditions: with nrap_human NRAP
Remark: another data set of the same source

effect of a mutation on the interaction	Variant
decreasing interaction	C58G

Variants of: B1
Conditions: with actn2_human ACTN2, P35609
actn2_human ACTN2, P35609, sequence (P35609 whole entry): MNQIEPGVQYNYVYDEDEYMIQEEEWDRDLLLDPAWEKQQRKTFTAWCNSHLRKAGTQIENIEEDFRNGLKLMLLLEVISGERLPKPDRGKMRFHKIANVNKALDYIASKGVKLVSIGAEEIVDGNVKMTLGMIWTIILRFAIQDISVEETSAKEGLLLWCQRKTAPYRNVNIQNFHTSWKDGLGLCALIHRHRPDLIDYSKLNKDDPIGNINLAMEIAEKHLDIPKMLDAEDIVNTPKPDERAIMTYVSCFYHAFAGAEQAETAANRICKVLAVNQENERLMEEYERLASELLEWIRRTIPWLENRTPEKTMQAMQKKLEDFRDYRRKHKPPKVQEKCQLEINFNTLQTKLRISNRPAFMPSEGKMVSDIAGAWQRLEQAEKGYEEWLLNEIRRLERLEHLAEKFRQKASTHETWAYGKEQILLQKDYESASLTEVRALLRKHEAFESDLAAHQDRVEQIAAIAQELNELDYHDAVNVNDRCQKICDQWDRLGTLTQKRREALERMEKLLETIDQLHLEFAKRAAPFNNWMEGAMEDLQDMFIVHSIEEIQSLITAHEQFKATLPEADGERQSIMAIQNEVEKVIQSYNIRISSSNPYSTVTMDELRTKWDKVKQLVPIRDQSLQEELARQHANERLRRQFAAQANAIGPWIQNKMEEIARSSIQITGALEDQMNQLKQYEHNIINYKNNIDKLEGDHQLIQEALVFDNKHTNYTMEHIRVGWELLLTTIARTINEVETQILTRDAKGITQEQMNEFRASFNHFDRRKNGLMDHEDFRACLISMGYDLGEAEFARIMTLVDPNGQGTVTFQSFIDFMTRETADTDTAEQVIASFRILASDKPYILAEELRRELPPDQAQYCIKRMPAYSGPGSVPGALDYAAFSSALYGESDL

effect of a mutation on the interaction	Variant
decreasing interaction	C58G
